Test results as given in patent publication US20100249184A1, “INDUCTION AND/OR MAINTENANCE OF TUMOR DORMANCY BY DISRUPTION OF UROKINASE PLASMINOGEN ACTIVATOR RECEPTOR-INTEGRIN INTERACTION” (MOUNT SINAI SCHOOL OF MEDICINE, priority 2007, published 2010).
“Also recorded” adds a separate entry of the source.

How the values were obtained:
[1] = target: T1, purified human α5β1-integrin (Homo sapiens, UniProt P05556+P08648); test: Solid phase dot-ELISA: α5β1-integrin binding to immobilized uPAR peptides and suPAR; conditions: for α5β1-integrin binding to immobilized peptide: peptide immobilized on nitrocellulose, α5β1-integrin 750 ng/ml
T1 construct: purchased Chemicon International (Temecula, Calif.)
Protocol: FIGS. 1A-H show the interaction between α5β1-integrin and immobilized uPAR and uPAR-derived synthetic peptides through solid-phase dot-ELISA. […] Bound integrin was detected with anti-α5 integrin antibody followed by goat anti-rabbit IgG (H+L) HRP conjugated secondary antibody and developed with enhanced chemiluminescence (“ECL”). FIG. 1B is a graph showing that binding of integrin to suPAR is saturable. SuPAR (1.5 μg) was immobilized on nitrocellulose membrane in triplicates, incubated with 0, 0.1, 0.5, 1, 2, and 4 μg/ml of α5β1-integrin and tested for integrin binding as in FIG. 1A. The dots were scanned with NIH Image. Mean and SE are shown. […] Peptides representing regions located in each of the three uPAR-domains were immobilized, incubated with α5β1-integrin, and analyzed as in FIG. 1A. Only peptide 240-248 binds α5β1-integrin. FIG. 1D is a graph showing that peptide 240-248 inhibits integrin binding to suPAR. The α5β1-integrin (750 ng/ml) was pre-incubated for 15 min at room temperature with 100 fold molar excess of 240-248 or 17-24 peptides, or with no peptide (Control) and the mixtures were applied to immobilized suPAR (1.5 μg), 2 dots per mixture, and developed as in FIG. 1A. The dots were scanned with NIH Image. The results (bars) show % of control, the lines show range. FIG. 1E is a graph showing binding of α5β1- and α3β1-integrin to suPAR and peptide 240-248. Dot-ELISA was performed in duplicate as in FIG. 1A, except that purified α5β1-integrin and α3β1-integrin (750 ng/ml) were used. Bound integrins were detected with the appropriate previously titrated antibodies followed by goat anti-rabbit IgG (H+L) HRP conjugated secondary antibody and detection with ECL. The graph represents the mean and range of two values: α5β1-integrin binding to peptide 240-248 (▪) or SuPAR (▴); α3β1-integrin binding to peptide 240-248 ([…]) and SuPAR (x). […] Peptide 240-248 (domain III), 17-24 (domain I), and the S245A mutant of peptide 240-248 were immobilized and tested for integrin binding as in FIG. 1A. FIGS. 1G-H show the crystal structure of human uPAR shown as a surface representation. The three individual domains of uPAR in FIG. 1G are indicated as follows: D1 is on the right side, DII is on the top of the model, and Diii is on the left of the model. In FIG. 1H, the order of the domains is inversed. […] The location of the COOH-terminal in uPAR domain III harboring the GPI-anchor is indicated by the arrow (FIG. 1H). FIGS. 1G-H were created by the program PyMol (DeLano Scientific) using the coordinates 1YWH.
FIGS. 2A-B show solid phase dot-ELISA of suPAR. […] Binding was detected as in FIG. 1A and the dots were scanned with NIH Image. Mean of the two-scanned value for each suPAR concentration are shown in the bottom panel. Mutation of residues in the 239-249 sequence reduced the integrin binding by ˜50 to 94%. suPAR^E33A (▪), suPAR^wt (▴), suPAR^R239A (♦), suPAR^H249A (x), suPAR^Q248A (∘), suPAR^M246A ([…]), suPAR^S245A (□).
Synthetic uPAR-derived peptides and mutant proteins were diluted to 0.5, 1, and 2 μg/100 μl of PBS. […] The strips, pinned to the bottom of a plastic box, were washed with TBS with 0.1% Tween 20, overlaid with 500 μl of rabbit anti-integrin α5 polyclonal antibody (1:650) for 1 hr at RT, washed with TBST twice, incubated with goat anti-rabbit IgG (H+L) HRP conjugated secondary antibody (1:2000) for 1 hr, washed 3 times with TBST, and developed with ECL. The dots were scanned with NIH image.

[2] = system: T-HEp3 cells; test: Screening of compounds by luciferase assay (Luc-Elk activity as readout for ERK); type: cell-based, human; conditions: 5 μM compound, 16 h
Protocol: To test the effect of uPAR-integrin disruption by uPAR-docked compounds on ERK activation, T-HEp3 cells were transiently co-transfected with pFA-Elk1-fusion plasmid and pD700-luciferase plasmid in a 96-well plate. These plasmids report the state of ERK activation through luciferase activity level. After 24 h of transfection, cells were serum starved for 5 h and incubated with PD98059 (Calbiochem, San Diego, Calif.) (25 and 50 μM) and 5 μM of each compound prepared in DMEM. Following 16 h of incubation with compounds, the cells were lysed directly in Steady glo-luciferase lysis buffer (1:1) from Promega and read on Tecan Safire2™ using Magellan 6.0 software. Histographs representing the percent inhibition of Luc-Elk activity as readout for ERK reduction were generated.

[3] = system: T-HEp3 cells; test: Fibronectin-fibrils disruption; type: cell-based, human; conditions: cells displaying fibronectin fibrils; control had 90.2% fibril positive cells; compounds 5 and 10 μM, 16 h
Protocol: To test the effects of fibronectin-fibril disruption by the compounds, T-HEp3 cells were incubated in 5% fibronectin-depleted fetal bovine serum (FBS)/DMEM with 0, 2.5, 5, 7, and 10 μM of the compounds or anti-uPAR antibody (R2, 20 μg/ml) or anti-α5β1 antibody (BIIG2, 20 μg/ml) or MEK inhibitor (PD98059, 25 μM) as a […] at room temperature for 15 min prior to plating them in chambered slides. […] The cells were fixed with 3% paraformaldehyde for 20 min and the bound fibronectin was detected using rabbit anti-human fibronectin antibody and with FITC-conjugated secondary antibody.
Compounds MS0012479 and MS0019128 and their analogs were tested for fibronectin-fibril disruption. […] A total of 700 to 1150 cells were counted in 5 individual fields. Cells displaying fibronectin fibrils were then counted and expressed as a percentage of total cells. The mean obtained from the compound-treated cells was expressed as a percentage of control. The control had 90.2% of fibril positive cells (Table 2).

[4] = target: T2, β1-integrin (Homo sapiens, UniProt P05556); test: Detection of active β1 integrin by FACS (HUTS-4 antibody); type: cell-based; conditions: vector transfected HEK293 cells; 1 mM MnCl2; untreated 50.9%
T2 construct: endogenous in cells; host or cells: HEK293 cells (ATCC), transiently transfected with pcDNA3.1 vector, uPAR^wt or uPAR^S245A
Protocol: FIGS. 3A-C illustrate that […] expressed in cells has reduced ability to activate α5β1-integrin. […] HEK293 cells were transfected with pcDNA3.1 (vector), uPAR^wt, or uPAR^S245A and used 48 hrs later. Vector-transfected cells incubated with medium alone or with medium with 1 mM MnCl2, followed by HUTS-4 and uPAR-transfected cells (uPAR^wt and uPAR^S245A) incubated with HUTS-4 or isotype matched Ig (IgG2b) were then incubated with secondary rabbit-anti mouse IgG coupled to Alexa 488. uPAR expression was detected using anti-uPAR antibody (R2). In the upper panels, the results are plotted as number of events vs. fluorescence intensity. The numbers indicate percent of total population above the median fluorescence intensity determined in vector-transfected cells. The lower panel relates to overlay of uPAR in uPAR^wt (black line) and uPAR^S245A (grey line) transfected cells. […] Cell-bound fibronectin was detected by immunofluorescence 48 hrs after transfection. […] HEK293 cells plated in 60 mm dishes were transfected and treated as in FIG. 3B, and the DOC-insoluble fibronectin was analyzed by 6% PAGE and Western blot under non-reducing conditions. […]
HEK293 cells were transiently transfected with pcDNA3.1, uPAR^wt, and uPAR^S245. […] Finally, cells were washed and suspended in 400 μl of FACS buffer and analyzed in FACS Canto (Becton Dickinson, Calif.) using FACSDiva software. […]

[5] = target: α5β1-integrin endogenous on HEK293, D-HEp3 and T-HEp3 cells (human) (UniProt P08648); test: cell-based or functional assay
[6] = target: endogenous β1 integrin on HEK293 cells (active state) (human) (UniProt P05556); test: flow cytometry, HEK293 cells expressing uPAR^wt
[7] = target: endogenous β1 integrin on HEK293 cells (active state) (human) (UniProt P05556); test: flow cytometry, vector-transfected HEK293 cells treated with Mn++ (1 mM MnCl2)
[8] = target: endogenous β1 integrin on HEK293 cells (active state) (human) (UniProt P05556); test: flow cytometry, vector-transfected HEK293 cells, medium alone
[9] = target: endogenous β1 integrin on HEK293 cells (active state) (human) (UniProt P05556); test: flow cytometry, HEK293 cells expressing uPAR^S245A
[10] = target: T3, immobilized pro-uPA^S356A (Homo sapiens, UniProt P00749, S376A); test: Kinetics of pro-uPA/uPAR interaction by surface plasmon resonance; type: binding; conditions: soluble uPAR (residues 1-283), 20° C.
T3 construct: Coupling of pro-uPA^S356A to the sensor chip by EDC/NHS

T1 sequence (P08648 42-894 limits assumed): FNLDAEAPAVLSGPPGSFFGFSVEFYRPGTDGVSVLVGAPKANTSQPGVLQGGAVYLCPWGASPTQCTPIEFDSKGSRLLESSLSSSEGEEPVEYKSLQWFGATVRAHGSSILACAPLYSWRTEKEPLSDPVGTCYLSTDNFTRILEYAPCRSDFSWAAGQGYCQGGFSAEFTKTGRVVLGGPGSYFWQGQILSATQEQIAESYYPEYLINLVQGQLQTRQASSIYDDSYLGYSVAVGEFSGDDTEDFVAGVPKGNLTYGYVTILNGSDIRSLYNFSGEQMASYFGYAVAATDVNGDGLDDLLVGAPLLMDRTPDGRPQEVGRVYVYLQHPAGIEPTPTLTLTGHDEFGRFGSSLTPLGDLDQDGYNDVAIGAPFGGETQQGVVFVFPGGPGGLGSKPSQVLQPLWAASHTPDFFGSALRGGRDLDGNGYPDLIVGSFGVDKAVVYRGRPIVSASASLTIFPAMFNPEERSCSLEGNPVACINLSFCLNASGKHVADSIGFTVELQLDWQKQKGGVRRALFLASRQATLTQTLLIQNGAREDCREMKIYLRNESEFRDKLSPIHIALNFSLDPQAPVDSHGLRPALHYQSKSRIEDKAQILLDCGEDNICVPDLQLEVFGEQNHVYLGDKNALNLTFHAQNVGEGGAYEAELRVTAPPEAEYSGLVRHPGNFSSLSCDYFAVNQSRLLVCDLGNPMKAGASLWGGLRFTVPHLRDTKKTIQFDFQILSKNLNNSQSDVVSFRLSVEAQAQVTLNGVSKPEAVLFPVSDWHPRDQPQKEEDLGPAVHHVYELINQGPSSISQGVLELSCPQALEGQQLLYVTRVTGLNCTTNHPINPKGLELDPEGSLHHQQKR
T1 sequence (P08648 895-1049 limits assumed): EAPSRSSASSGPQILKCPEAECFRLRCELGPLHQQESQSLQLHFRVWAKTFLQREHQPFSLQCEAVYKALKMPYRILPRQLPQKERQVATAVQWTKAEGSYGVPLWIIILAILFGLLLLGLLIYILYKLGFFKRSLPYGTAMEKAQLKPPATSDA
T1 sequence (P05556 21-798): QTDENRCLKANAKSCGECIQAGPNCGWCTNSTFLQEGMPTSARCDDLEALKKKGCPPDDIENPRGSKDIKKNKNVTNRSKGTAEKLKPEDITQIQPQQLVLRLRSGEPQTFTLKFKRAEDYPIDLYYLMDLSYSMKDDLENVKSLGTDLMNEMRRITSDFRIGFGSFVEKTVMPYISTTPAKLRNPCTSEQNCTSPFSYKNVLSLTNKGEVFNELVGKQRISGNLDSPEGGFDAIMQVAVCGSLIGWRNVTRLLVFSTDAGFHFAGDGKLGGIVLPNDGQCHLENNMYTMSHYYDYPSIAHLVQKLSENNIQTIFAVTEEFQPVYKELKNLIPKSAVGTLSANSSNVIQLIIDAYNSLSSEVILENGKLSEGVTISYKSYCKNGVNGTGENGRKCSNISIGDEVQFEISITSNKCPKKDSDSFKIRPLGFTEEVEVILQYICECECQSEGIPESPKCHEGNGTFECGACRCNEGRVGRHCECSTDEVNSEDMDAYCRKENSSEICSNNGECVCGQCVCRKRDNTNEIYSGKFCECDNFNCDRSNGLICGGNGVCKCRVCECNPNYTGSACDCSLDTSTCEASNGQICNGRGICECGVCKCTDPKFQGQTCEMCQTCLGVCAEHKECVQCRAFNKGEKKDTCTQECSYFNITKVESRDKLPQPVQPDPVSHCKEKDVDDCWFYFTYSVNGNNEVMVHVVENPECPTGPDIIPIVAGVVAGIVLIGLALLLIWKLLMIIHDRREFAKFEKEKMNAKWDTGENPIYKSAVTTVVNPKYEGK
Sequence of endogenous β1 integrin on HEK293 cells (active state) (human) (P05556 21-798): as above
Sequence of α5β1-integrin endogenous on HEK293, D-HEp3 and T-HEp3 cells (human) (P08648 42-1049, chain 1 of 2): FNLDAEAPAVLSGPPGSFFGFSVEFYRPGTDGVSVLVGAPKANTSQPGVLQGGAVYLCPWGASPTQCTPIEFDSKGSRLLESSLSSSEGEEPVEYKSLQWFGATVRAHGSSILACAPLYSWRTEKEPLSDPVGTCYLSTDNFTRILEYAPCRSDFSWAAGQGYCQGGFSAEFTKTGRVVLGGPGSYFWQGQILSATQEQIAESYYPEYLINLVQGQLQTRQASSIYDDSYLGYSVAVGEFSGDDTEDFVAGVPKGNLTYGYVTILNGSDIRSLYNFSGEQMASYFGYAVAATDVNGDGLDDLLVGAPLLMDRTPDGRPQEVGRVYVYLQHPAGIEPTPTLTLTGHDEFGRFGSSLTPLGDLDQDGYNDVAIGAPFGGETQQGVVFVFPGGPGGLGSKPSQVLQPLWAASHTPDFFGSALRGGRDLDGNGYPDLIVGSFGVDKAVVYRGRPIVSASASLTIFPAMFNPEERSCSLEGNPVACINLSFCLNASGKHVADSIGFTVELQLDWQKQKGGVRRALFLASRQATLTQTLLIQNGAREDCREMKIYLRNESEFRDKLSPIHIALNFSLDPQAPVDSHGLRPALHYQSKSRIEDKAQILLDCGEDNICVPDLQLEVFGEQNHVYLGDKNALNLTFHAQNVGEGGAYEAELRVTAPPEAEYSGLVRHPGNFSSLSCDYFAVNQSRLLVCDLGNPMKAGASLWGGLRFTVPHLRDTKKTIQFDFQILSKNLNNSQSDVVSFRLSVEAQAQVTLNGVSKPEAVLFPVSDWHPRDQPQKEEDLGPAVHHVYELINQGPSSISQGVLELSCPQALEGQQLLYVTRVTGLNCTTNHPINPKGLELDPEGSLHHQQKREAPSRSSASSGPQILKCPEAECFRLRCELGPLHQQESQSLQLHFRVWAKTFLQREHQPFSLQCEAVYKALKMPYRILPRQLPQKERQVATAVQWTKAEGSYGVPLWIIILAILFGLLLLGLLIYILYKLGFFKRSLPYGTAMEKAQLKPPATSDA
Sequence of α5β1-integrin endogenous on HEK293, D-HEp3 and T-HEp3 cells (human) (P05556 21-798, chain 2 of 2, further chain): as the sequence (P05556 21-798) above
T2 sequence (P05556 21-798): as above
T2 sequence (P08648 42-894 partner limits assumed): as the sequence (P08648 42-894 limits assumed) above
T2 sequence (P08648 895-1049 partner limits assumed): as the sequence (P08648 895-1049 limits assumed) above

**Q.** For “66-74: synthetic uPAR-derived peptide, domain I 66-74: LTEVVCGLD (SEQ ID NO:6)”, which “α5β1-integrin binding to immobilized peptide” value [1] is on record?
**A.** no binding

**Q.** For “84-95: synthetic uPAR-derived peptide 84-95: AVTYSRSRYLEC (SEQ ID NO:7)”, which “α5β1-integrin binding to immobilized peptide” value [1] is on record?
**A.** no binding

**Q.** How did the “α5β1-integrin binding to immobilized peptide” value [1] turn out when “108-118: synthetic uPAR-derived peptide, domain II 108-118: GRHQSLQCRSP (SEQ ID NO:8)” was run?
**A.** no binding

**Q.** How did the ERK inhibitory activity [2] turn out when N=C(N/N=C\c1cccc(O)c1)c1ccccn1 [MS0019126] was run?
**A.** very strong; also recorded: showed ERK inhibitory activity

**Q.** What about the “Quantification (% of control)” value [3] of the same molecule?
**A.** 66.0 % of control

**Q.** [Mn+2] [Mn^++] was tested. Which “population with fluorescence above the median (HUTS-4)” value [4] did it give?
**A.** 86.2%

**Q.** “BIIG2 (α5β1-integrin function blocking antibody)” was tested. Which fibronectin-fibril positive T-HEp3 cells, % of control [5] did it give?
**A.** 24.1 % of control

**Q.** What does the source list for HUTS-4 antibody?
**A.** % of population with fluorescence intensity above the median [6]: 74.4%; % of population with fluorescence intensity above the median [7]: 86.2%; % of population with fluorescence intensity above the median [8]: 50.9%; % of population with fluorescence intensity above the median [9]: 44.6%

**Q.** With “uPAR mutant E33A: purified soluble uPAR (residues 1-283) with single amino acid mutation E33A in domain I” as the molecule, how does the “α5β1-integrin binding of full-length recombinant suPAR with single amino acid mutation” value ([1]; suPAR 0.5, 1.0, 2.0 μg immobilized, integrin 750 ng/ml) read?
**A.** no effect

**Q.** What about the koff [10] of the same molecule?
**A.** 2.19 10^−4 S^−1

**Q.** And the kon [10]?
**A.** 2.52 10^5 m^−1 S^−1

**Q.** “uPAR mutant H249A: purified soluble uPAR single amino acid mutant H249A” was tested. Which koff [10] did it give?
**A.** 1.92 10^−4 S^−1

**Q.** And the kon [10]?
**A.** 3.84 10^5 m^−1 S^−1

**Q.** “uPAR mutant L66A: soluble uPAR single site mutant L66A, control known to affect uPA-uPAR interaction” was tested. Which koff [10] did it give?
**A.** 10.6 10^−4 S^−1

**Q.** And the kon [10]?
**A.** 2.26 10^5 m^−1 S^−1

**Q.** For “uPAR mutant R239A: purified soluble uPAR single amino acid mutant R239A”, which koff [10] is on record?
**A.** 1.48 10^−4 S^−1

**Q.** What about the kon [10] of the same molecule?
**A.** 2.33 10^5 m^−1 S^−1
